{"source": "paper PMC4878091", "about": "(The Journal of Cell Biology, 2016)", "biological_target": "recombinant collagen IV α2 monomer (α2-84/α2-CB3)", "test": "SEC", "data": [{"binder": "recombinant collagen IV α1 monomer (α1-84/α1-CB3) (domain or fragment) not shown", "values": [{"measurement": "stoichiometry N", "result": 2}]}]}
